# According to patent US20250382369A1 (UCL BUSINESS, published 2025):
# Residue numbers refer to the chain shown, from its start.
# T1: human 4Ig-B7-H3 expressed on transduced cells (human, UniProt Q5ZPR3 29-534)
# T1 construct: also called isoform 1; Jurkat-B7H3
# T1 sequence: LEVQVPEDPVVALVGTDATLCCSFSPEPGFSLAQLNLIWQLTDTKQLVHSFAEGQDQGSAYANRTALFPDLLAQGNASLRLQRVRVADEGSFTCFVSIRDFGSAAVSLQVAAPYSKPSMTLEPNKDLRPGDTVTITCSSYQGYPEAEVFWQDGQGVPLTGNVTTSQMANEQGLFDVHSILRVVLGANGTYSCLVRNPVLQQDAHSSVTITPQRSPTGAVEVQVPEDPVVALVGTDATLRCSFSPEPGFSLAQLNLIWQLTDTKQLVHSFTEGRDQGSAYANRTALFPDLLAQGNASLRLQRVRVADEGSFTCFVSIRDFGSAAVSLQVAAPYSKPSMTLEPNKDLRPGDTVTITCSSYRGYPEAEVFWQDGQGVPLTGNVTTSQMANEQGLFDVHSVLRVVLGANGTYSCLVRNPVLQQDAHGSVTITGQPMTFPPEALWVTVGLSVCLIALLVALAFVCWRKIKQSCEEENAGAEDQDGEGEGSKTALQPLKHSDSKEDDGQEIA
# T2: mouse B7-H3 on the mouse cell line 3T3/NA1 (mouse, UniProt Q8VE98 29-316)
# T2 construct: whole, on cells
# T2 sequence (looked up): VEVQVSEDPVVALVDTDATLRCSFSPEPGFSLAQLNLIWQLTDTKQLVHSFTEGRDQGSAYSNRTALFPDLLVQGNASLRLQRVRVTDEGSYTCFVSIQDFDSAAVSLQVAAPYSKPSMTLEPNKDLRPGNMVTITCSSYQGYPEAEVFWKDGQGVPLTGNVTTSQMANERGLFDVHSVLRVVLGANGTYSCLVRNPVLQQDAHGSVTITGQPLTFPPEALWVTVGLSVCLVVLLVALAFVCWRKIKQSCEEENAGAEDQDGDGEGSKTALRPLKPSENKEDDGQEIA
# T3: human B7H3 expressed on cell surface (human, UniProt Q5ZPR3 29-534)
# T3 construct: whole, on cells; also called B7-H3 on LAN-1, Kelly, IMR-32 and other B7-H3 positive target cell lines
# T3 sequence (looked up): T1 sequence
# T4: recombinant mouse B7-H3 (plate bound) (mouse, UniProt Q8VE98 29-244, limits assumed)
# T4 sequence (looked up): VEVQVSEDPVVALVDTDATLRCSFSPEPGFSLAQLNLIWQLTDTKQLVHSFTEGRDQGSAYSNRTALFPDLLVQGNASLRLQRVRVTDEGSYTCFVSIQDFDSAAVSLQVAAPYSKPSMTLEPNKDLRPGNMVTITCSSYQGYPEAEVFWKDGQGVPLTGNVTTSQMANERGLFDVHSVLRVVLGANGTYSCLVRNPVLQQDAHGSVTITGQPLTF
# B1: BH6 scFv-Fc fusion protein (Fc fusion, not shown: a dimerising Fc or GST; small tags and cut ends)
# scFv: QVKLQQSGADLVKPGASVKLSCKASGYTFTSYWMHWVKQRPGQGLEWIGMIHPNSDGTNYNEKFKNRATLTVDKSSSTAYMQLNSLTSEDSAVYYCARWSYGMDSWGQGTTVTVSSGGGGSGGGGSGGGGSDIVLTQSPASLAVSLGQRATITCSASSSVSYMHWYQQKSGTSPKRWIYDTSKLASGVPARFSGSGSGTSYSLTISSMEAEDAATYYCQQWSRNPLTFGAGTKLEIK
# B2: TE9 scFv-Fc fusion protein (Fc fusion, not shown: a dimerising Fc or GST; small tags and cut ends)
# scFv: QVQLQQSGAALVKPGTSVKLSCKASGYTFTSYWMHWVKQRPGQGLEWIGMIHPKSGSVDYNEKFTNKATLTGDKSSGTAYMQLSSLTSEDSAVYYCARGGYGSPFDYWGQGTTVTVSSGGGGSGGGGSGGGGSENVLTQSPAIMSASPGEKVTMTCSASSSVSYMYWYQQKPGSSPRLLIYRTSNLASGVPARFSGSGSGTSYSLTISSMEAEDAATYYCQQWSSNPPTFGGGTKLEIK
# B3: BF9 scFv-Fc fusion protein (Fc fusion)
# scFv: QVKLQQSGAELVKPGASVKLSCKASGYTFTSYWVHWVKQRPGQGLEWIGMIHPKSGSADYNEKFTTKATLTADKSSSTAYMQLSSLTSEDSAVYYCARGGYGSPFDYWGQGTTVTVSSGGGGSGGGGSGGGGSENVLTQSPAIMSASPGEKVTMTCSASSSVSYMYWYQQKPGSSPRLLIYDTSNLASGAPVRFSGRGSGTSYSLTISSMEAEDAATYYCQQWSNNPLTFGAGTKLELK
# notes: not shown: Fc of the scFv-Fc fusion, and any hinge or junction to it
# B4: BH6 chimeric human IgG1 full antibody (antibody, V domains shown)
# VH: QVKLQQSGADLVKPGASVKLSCKASGYTFTSYWMHWVKQRPGQGLEWIGMIHPNSDGTNYNEKFKNRATLTVDKSSSTAYMQLNSLTSEDSAVYYCARWSYGMDSWGQGTTVTVSS
# VL: DIVLTQSPASLAVSLGQRATITCSASSSVSYMHWYQQKSGTSPKRWIYDTSKLASGVPARFSGSGSGTSYSLTISSMEAEDAATYYCQQWSRNPLTFGAGTKLEIK
# notes: Chimeric antibody with a human IgG1 Fc domain; also called BH6 antibody
# B5: TC6 scFv-Fc fusion protein (Fc fusion, not shown: a dimerising Fc or GST; small tags and cut ends)
# scFv: QVKLQESGAELVKPGASVKLSCKASGYTFTSYWIHWVKQRPGQGLEWIGMIHPKSGSINYNEKFRSKATLTVDKSSSTAYMQLSRLTSEDSAVYFCASGGYGSSLDYWGQGTTVTVSSGGGGSGGGGSGGGGSQIVLTQSPAIMSASPGEKVTMTCSASSSVSYMYWYQQKPRSSPISWIYLTSNLASGVPARFSGSGSGTSYSLTISSMEAEDAATYYCQQWSSDPLTFGAGTKLELK
# B6: TF9 scFv-Fc fusion protein (Fc fusion)
# scFv: B5 scFv with Q134E, I135N, M154I, T155S, M165V, R173G, I177K, S178P, L182R, D226N
# notes: as for B3
# B7: TE9 chimeric human IgG1 full antibody (antibody, V domains shown)
# VH: QVQLQQSGAALVKPGTSVKLSCKASGYTFTSYWMHWVKQRPGQGLEWIGMIHPKSGSVDYNEKFTNKATLTGDKSSGTAYMQLSSLTSEDSAVYYCARGGYGSPFDYWGQGTTVTVSS
# VL: ENVLTQSPAIMSASPGEKVTMTCSASSSVSYMYWYQQKPGSSPRLLIYRTSNLASGVPARFSGSGSGTSYSLTISSMEAEDAATYYCQQWSSNPPTFGGGTKLEIK
# notes: Chimeric antibody, mouse variable domains cloned into full human IgG1; also called TE9 antibody; TE9 whole antibody
# Assays:
# [1] = target: T1, human 4Ig-B7-H3 expressed on transduced …; assay: flow cytometry, scFv-Fc on Jurkat cells transduced with B7-H3 isoforms (FIG. 2D)
# [2] = target: T2, mouse B7-H3 on the mouse cell line …; assay: flow cytometry on the mouse cell line 3T3/NA1 (FIG. 5A)
# Experimental: (§1) TC6, TF9 and BH6 were produced as chimeric antibodies with a human IgG1 Fc domain. Antibodies were purified on protein A columns (Cytiva) and were tested in ELISA against plate bound antigen, with detection using goat anti-human IgG (H+L) (SeraCare). Cross reactivity against mouse B7-H3 was tested using flow cytometry against the mouse cell line 3T3/NA1.
# [3] = target: T3, human B7H3 expressed on cell surface; assay: flow cytometry, chimeric IgG1 and anti-human secondary on neuroblastoma lines and B7-H3 positive Jurkat lines (FIG. 6)
# Excerpt: FIG. 6—Chimeric antibodies derived from TE9 and BH6 show specificity for human B7H3 expressed on cell surface. TE9 and BH6 ScFv that had been cloned into full human IgG1 antibodies were used in staining experiments. A. Chimeric human IgG1 full antibodies derived from TE9 and BH6 ScFvs were used to stain 3 neuroblastoma cell lines, LAN-1, Kelly and IMR-32. […] B. Chimeric antibodies TE9 and BH6 were used to stain the 3 B7-H3 positive Jurkat cell lines, 4Ig-B7-H3, 2Ig-B7-H3 and T-B7-H3 (see FIG. 2)
# [4] = target: T4, recombinant mouse B7-H3 (plate bound); assay: binding ELISA with immobilised recombinant protein (FIG. 28C)
# Experimental: as §1
binder,measurement,setting,value
B1,binding result,[1],binds
B2,binding result,[1],binds
B3,binding result,[1],binds
B4,binding result,[2],binds
same,binding result,[3],binds
B5,binding result,[1],binds
B6,binding result,[1],binds
B7,binding result,[4],no binding
same,binding result,[3],binds
